Data published in US20260132200A1.
pEC50: −log10 of the molar value. Where two headings read alike, the source gives them in different places. Blank lines part the entries; values can stand above or below the substance they belong to.

Legend:
[1] = target: human CD20 expressed on Raji cells (CD3-, CD20+ human B-cell line) (human) (UniProt P11836); experiment: cell-based or functional assay
[2] = target: human CD3 expressed on cells (Jurkat, a CD3+ human T-cell line; human T cells) (human) (UniProt P07766); experiment: cell-based or functional assay
[3] = target: human CD3 expressed on cells (Jurkat, a CD3+ human T-cell line; human T cells) (human) (UniProt P07766); experiment: cell-based or functional assay; remark: listed apart in the source
[4] = target: cynomolgus monkey CD3 on monkey T cells (CD2+CD4+ cells of cynomolgus PBMCs) (cynomolgus monkey) (UniProt Q95LI5); experiment: FACS on monkey PBMCs, CD2+CD4+ T cells
Sequence of cynomolgus monkey CD3 on monkey T cells (CD2+CD4+ cells of cynomolgus PBMCs) (cynomolgus monkey) (Q95LI5 22-198): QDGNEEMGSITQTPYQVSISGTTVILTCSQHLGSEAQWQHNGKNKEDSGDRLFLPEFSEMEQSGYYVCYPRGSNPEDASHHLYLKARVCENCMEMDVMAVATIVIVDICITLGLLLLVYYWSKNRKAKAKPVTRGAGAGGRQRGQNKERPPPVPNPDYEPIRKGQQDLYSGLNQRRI

[5] = target: cynomolgus monkey CD3 on monkey T cells (CD2+CD4+ cells of cynomolgus PBMCs) (cynomolgus monkey) (UniProt Q95LI5); experiment: FACS on cynomolgus PBMCs, CD2+CD4+ T cells

Sequence of human CD20 expressed on Raji cells (CD3-, CD20+ human B-cell line) (human) (P11836 whole entry): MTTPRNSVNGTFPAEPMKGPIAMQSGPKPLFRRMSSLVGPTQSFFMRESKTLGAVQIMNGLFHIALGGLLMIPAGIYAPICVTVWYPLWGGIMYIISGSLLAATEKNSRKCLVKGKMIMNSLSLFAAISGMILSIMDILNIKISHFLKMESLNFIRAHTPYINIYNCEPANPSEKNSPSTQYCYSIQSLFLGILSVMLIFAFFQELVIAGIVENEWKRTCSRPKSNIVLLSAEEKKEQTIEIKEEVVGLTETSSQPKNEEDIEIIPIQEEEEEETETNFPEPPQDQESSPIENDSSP

CDC EC50, Raji [1]: 0.0966 nM
CDC EC50, Raji SCID1 [1]: 85.6 nM
CDC EC50, Raji SCID2 [1]: 0.0587 nM
CDC EC50, Raji SCID3 [1]: 25.5 nM
CDC EC50, Raji SCID4 [1]: 5.29 nM
Substance: Control III: anti-CD20 therapeutic antibody with heavy and light chain sequences of Rituxan (Rituximab)

Substance: OKT-3, mouse monoclonal antibody against human T-cell surface antigens (ATCC CRL-8001)
U937 Cytotoxicity Human T-cells [M] (EC50) [2]: 3.04e-12 M
U937 Cytotoxicity Human T-cells [M] (EC50) [3]: 2.35e-12 M

pEC50 [4]: 10.15
pEC50 [5]: 10.15
Substance: SP34, mouse monoclonal antibody reactive against the epsilon chain of the T3 complex on human T lymphocyte cells
